From US20240409586A1, “CYCLIC POLYPEPTIDE CARRIER FOR EFFICIENT DELIVERY OF NUCLEIC ACID, AND VARIANTS THEREOF” (SUZHOU HEALIRNA BIOTECHNOLOGY CO., LTD., priority 2022, published 2024) come the findings set out here.

Bridge positions count the residues as written; N and C are the ends. Ends that are not written are not given here.

Series [1] is described as follows: Dynamic light scattering of particles formed by cyclic peptide samples with siRNA. The format is physicochemical. To be noted: cyclic peptide/RNA mass ratio 4:1, DLS; for Zeta potential: in mV (unit assumed). As for the experimental part: Utilizing the Malvern Zetasizer Nano ZS (Malvern Nano Particle Sizing Instrument), the particle size (Size), polydispersity index (PDI), and zeta potential (Zeta P) of the particles formed after samples 1-9 encapsulate siRNA at a cyclic peptide/RNA mass ratio of 4:1 were measured by dynamic light scattering (DLS).

Series [2] is described as follows: Dynamic light scattering of cyclic peptide/siRNA and cyclic peptide/lipid/siRNA formulations. The format is physicochemical. As to conditions: cyclic peptide/RNA 3:1; before and after binding with lipids (DSPC/cholesterol/RNA 2.4/3.1/1), DLS. The source says:
Sample 5 and 8 were selected and initially mixed in a microfluidic channel at a mass ratio of 3:1 cyclic peptide/RNA to form a particle solution, which was then left to stabilize.
The mass ratio of distearoylphosphatidylcholine (DSPC)/cholesterol/RNA was set at 2.4/3.1/1. DSPC and cholesterol were weighed and dissolved in a certain volume of ethanol solution.
The cyclic peptide/siRNA aqueous solution was mixed with the lipid ethanol solution through a microfluidic channel to form composite particles again, where the final concentration of ethanol was 25%. Dialysis was used to remove the ethanol, and the final lipid/cyclic peptide/nucleic acid composite particles were collected.
Using the Malvern Zetasizer Nano ZS, the particle size and polydispersity index (PDI) before and after binding with lipids (5-L and 8-L) were measured for sample 5 and 8 using dynamic light scattering.

The subject of the next series is siRNA. The series is described as follows: Agarose gel electrophoresis of cyclic peptide/siRNA formulations (encapsulation). As to conditions: mass ratio of 4:1 of cyclic peptide/siRNA. The format is physicochemical. As for the experimental part:
a. Weigh out 0.5 g of agarose powder and pour it into a conical flask, then add 50 mL of 1×TAE electrophoresis buffer into the flask. Dissolve it completely under heating conditions.
b. After cooling to 65° C., add 5 μL of ethidium bromide, swiftly pour into the gel casting tray, insert the comb, and let it stand at room temperature for 0.5-1 hour until the gel solidifies.
c. Next, remove the comb, pour 1×TAE electrophoresis buffer into the well to submerge the gel.
d. Prepare nine formulations of cyclic peptides with siRNA, using samples 1-9 at mass ratios of 1-4 of sample/siRNA. Mix 2 μL of 6× loading dye with 10 μL of samples, load 10 μL into the wells, and concurrently load 10 μL of DNA Marker and bare siRNA into the wells as controls.
e. Subsequently, run the electrophoresis at […] for 45 minutes, turn off the power supply, remove the gel, and observe and record the electrophoresis image with a UV gel imaging system.

A further series deals with 293T cells. Kind of series: EGFP mRNA transfection, fluorescence microscopy. The format is cell-based, human. To be noted: 24 hours, S5/mRNA mass ratios 10:1, 12.5:1, 15:1. The source says: 1. Sample preparation: Sample 5 (S5) was selected and mixed in a microfluidic channel to form a particle solution at different cyclic peptide/mRNA mass ratios (10:1, 12.5:1, 15:1), and then left to stabilize.
2. Control formulation: A lipid nanoparticle (LNP) control at a ratio of 4-(N,N-dimethylamino) butyric acid (dilinoleyl) methyl ester/DSPC/cholesterol/1,2-dimyristoyl-rac-glycerol-3-methoxypolyethylene glycol 2000=50:10:38.5:1.5 was used and mRNA was encapsulated according to the method described in Embodiment 3.
3. Cell plating: 293T cells were plated in a 24-well plate with 9 wells per cell type, each well containing 1 ml of medium and 1×10^5 cells, grown for 12 hours until adherence.
4. Solution preparation: PBS (control); for each group in 3 ml serum-free medium, 3×20 μl=60 μl of prepared sample was added and mixed well, 1 ml per well. Transfection group (lipo2000); in 1.2 ml serum-free medium, add 30 μl of mRNA at a concentration of 0.1 μg/μl and 3 μl×3=9 μl of lipo2000, mix well, let stand for 5-10 min. Cells were washed, transfection reagent was added at 400 μl per well, topped up with 600 μl DMEM complete medium. […]
5. Photo capture: Fluorescence photo: exposure time 600 ms, exposure magnification 14, exposure brightness +1; white light photo: exposure time 10 ms, exposure magnification 1, exposure brightness +1.

On to “Ala-Ala-Leu-Ala-Ala-Leu-Ala-Ala-Leu-Cys-Lys-Lys-Lys-Lys-Lys-Cys-Leu-Ala-Ala-Leu-Ala-Ala-Leu-Ala-Ala (AALAALAALCKKKKKCLAALAALAA; disulfide 10-16 (inferred)) [Sample 1]”, for which, in series [1], the Polydispersity index came to 0.254, the Size is 159.6 nm and the Zeta potential was found to be 7.09.

Take “Arg-Asp-Gly-Lys-Lys-Lys-Leu-Lys-Lys-Lys-Leu-Cys-Gln-Leu-Ile-Lys-Gln-Leu-Ile-Lys-Gln-Leu-Ile-Lys-Gln-Leu-Ile-Lys-Ile-Leu-Gln-Cys-Leu-Lys-Lys-Lys-Leu-Lys-Lys-Lys-Gly-Asp-Arg (RDGKKKLKKKLCQLIKQLIKQLIKQLIKILQCLKKKLKKKGDR; disulfide 12-32 (inferred)) [Sample 8]”: in series [1], the Polydispersity index amounted to 0.143, the Size was 29.92 nm and the Zeta potential is on record as 16.5. In series [2], this substance yielded a PDI of 0.15 and a Size of 31.85 nm. Also, in the series on siRNA, the “encapsulation of siRNA (agarose gel electrophoresis)” value (shortened to “encapsulation of siRNA”) is reported as “encapsulate siRNA effectively”.

For “Arg-Asp-Gly-Lys-Val-Gln-Leu-Lys-Val-Gln-Leu-Cys-Gln-Lys-Lys-Lys-Gln-Lys-Lys-Lys-Gln-Lys-Lys-Lys-Gln-Lys-Lys-Lys-Lys-Lys-Gln-Cys-Leu-Gln-Val-Lys-Leu-Gln-Val-Lys-Gly-Asp-Arg (RDGKVQLKVQLCQKKKQKKKQKKKQKKKKKQCLQVKLQVKGDR; disulfide 12-32 (inferred)) [Sample 9]”, in series [1], the Polydispersity index amounted to 0.169, the Size amounted to 111.3 nm and the Zeta potential is given as 23.0. In the series on siRNA, the “encapsulation of siRNA” value is reported as “encapsulate siRNA effectively”.

Regarding “KKMLKKMLCQKKKKKQCLMKKLMKK (cysteine pairing not given here) [Sample 2]”, in series [1], the Polydispersity index stood at 0.326, the Size stood at 211.9 nm and the Zeta potential was 34.1.

Regarding “Lys-Ala-Met-Leu-Lys-Ala-Met-Leu-Lys-Ala-Met-Leu-Cys-Lys-Lys-Lys-Lys-Lys-Lys-Lys-Lys-Lys-Lys-Lys-Lys-Lys-Lys-Lys-Cys-Leu-Met-Ala-Lys-Leu-Met-Ala-Lys-Leu-Met-Ala-Lys (KAMLKAMLKAMLCKKKKKKKKKKKKKKKCLMAKLMAKLMAK; disulfide 13-29 (inferred)) [Sample 7]”, in series [1], the Polydispersity index worked out at 0.139, the Size was determined as 145.1 nm and the Zeta potential is reported as 26.3. The “encapsulation of siRNA” value with siRNA is given as “encapsulate siRNA effectively”.

“Lys-Gln-Val-Leu-Lys-Gln-Val-Leu-Cys-Gln-Lys-Lys-Lys-Gln-Lys-Lys-Lys-Gln-Lys-Lys-Lys-Gln-Lys-Lys-Lys-Lys-Lys-Gln-Cys-Leu-Val-Gln-Lys-Leu-Val-Gln-Lys (KQVLKQVLCQKKKQKKKQKKKQKKKKKQCLVQKLVQK; disulfide 9-29 (inferred)) [Sample 6]”: in series [1], the Polydispersity index worked out at 0.355, the Size came out at 32.58 nm and the Zeta potential was 21.2.

For “Lys-Leu-Leu-Lys-Leu-Leu-Lys-Leu-Leu-Lys-Leu-Leu-Cys-Lys-Lys-Lys-Lys-Lys-Cys-Leu-Leu-Lys-Leu-Leu-Lys-Leu-Leu-Lys-Leu-Leu-Lys (KLLKLLKLLKLLCKKKKKCLLKLLKLLKLLK; disulfide 13-19 (inferred)) [Sample 5]”, the “green fluorescent protein expression intensity versus control LNP group” value with 293T cells is recorded as “more pronounced green fluorescent protein compared to the control LNP group”. In addition, in series [1], the Polydispersity index is 0.133 and the Size was 81.02 nm. In series [2], this substance gave a PDI of 0.176 and a Size of 60.17 nm. Moreover, the “encapsulation of siRNA” value in the series on siRNA is reported as “encapsulate siRNA effectively”.

Regarding “Lys-Lys-Leu-Lys-Lys-Leu-Cys-Lys-Lys-Lys-Lys-Lys-Lys-Lys-Lys-Lys-Lys-Lys-Lys-Lys-Lys-Cys-Leu-Lys-Lys-Leu-Lys-Lys (KKLKKLCKKKKKKKKKKKKKKCLKKLKK; disulfide 7-22 (inferred)) [Sample 3]”, in series [1], the Polydispersity index came out at 0.065, the Size stood at 299.1 nm and the Zeta potential is 21.3.

As to “Lys-Lys-Leu-Lys-Lys-Leu-Lys-Lys-Leu-Lys-Lys-Leu-Cys-Ala-Phe-Lys-Ala-Phe-Lys-Ala-Phe-Lys-Ala-Phe-Lys-Phe-Ala-Cys (KKLKKLKKLKKLCAFKAFKAFKAFKFAC; disulfide 13-28 (inferred)) [Sample 4]”, in series [1], the Polydispersity index is 0.542, the Size is on record as 264.5 nm and the Zeta potential is listed as 18.6. In addition, the “encapsulation of siRNA” value in the series on siRNA was “poor encapsulation effects”.
